This is an account of results in patent publication US7947876B2 (Nippon Paper Industries Co., Ltd., priority 2004, dated 2011).

Ends that are not written are not given here.

For the series, the system named is mouse islet. Nature of the series: Thermal stability, activity measured by cAMP generation using mouse islet. The format is cell-based. To be noted: 15 min at 100° C.; for stability for thermal treatment (activity by cAMP generation): 10 μg/ml in 0.2% BSA solution, versus non-thermal treated control. The method, then: Further, trypsin treatment was performed, and a monomer GLP-1 derivative was obtained. […] To these thermal treated substances, non-thermal treated substances were prepared similarly as a control. Then, with respect to these substances, the activity was measured by cAMP generation using mouse islet. […] On the other hand, as the synthetic peptide was heat-stable, the 5 linked peptide expressed in rice was estimated to have changed by thermal denaturation to a tertiary structure which would not be easily digested by trypsin.

As to “[Ser^8,Gln^26, Asn^34]-GLP-1 (HDEFERHSEGTFTSDVSSYLEGQAAQEFIAWLVNGRG; Glucagon-like peptide 1; UniProt P01275 92-128, looked up, variant A8S K26Q K34N)”, the “activity lower than that of non-thermally treated (cAMP generation)” value (rice in distilled water, then extraction and trypsin treatment, FIG. 8) was “about 33%”.

In the case of “[Ser^8,Gln^26, Asn^34]-GLP-1 (HSEGTFTSDVSSYLEGQAAQEFIAWLVNGR; ends and bridges not checked) [synthetic GLP-1 derivative]”, the “stability for thermal treatment (activity by cAMP generation)” value is listed as “stable”.

For “synthetic native GLP-1: native GLP-1 obtained by synthesis [reference compound]”, the “stability for thermal treatment (activity by cAMP generation)” value is “stable”.
